According to the supplement of paper PMC12042874:
± gives the uncertainty stated by the source.

experiment: amyloid nucleation score (Sup35N fusion, yeast selection) (log enrichment); library NNK1; higher = more nucleation; inactive = no reads after selection
In short: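 Peptides of 20 random codons, each fused to Sup35N, were expressed in psi-negative yeast. Cells were induced with 100 μM copper sulfate for 24 hours and grown 7 days at 30°C on medium lacking adenine and uracil, and plasmid inserts before and after selection were Illumina-sequenced. Nucleation scores are DiMSum log enrichments of output over input reads, centred on the mode score of non-aggregating sequences, and sequences under 100 input reads were excluded.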

Substance	amyloid nucleation score
GICWLISCGRIVAGSSEQYV	0.924 ± 0.3
GLWYHA	0.025 ± 0.62
CIDYLRSDC	1.2 ± 0.53
THLGGRRFHFSELRTRSSRG	-0.023 ± 0.49
TFTCVITSGCDLYPLLGHIS	0.9 ± 0.4
IRVFLLSCQTEKLGSVGVRS	-0.007 ± 0.41
EKNCRADATV	-1.96 ± 1.8
EFSVFYMGFGVM	inactive
LRKPKIYVTNRPTQGYGSTA	0.169 ± 0.55
SIEGRSSIQATMCSMLLNGP	-0.197 ± 0.39
SLNSMVSLTWVRRDYTIWKR	0.001 ± 0.23
LSYNTISGFIAYIIDMSPFV	inactive
IGWNFAFVSGILVW	inactive
KNAPLPRIVTIGKVLRYNRG	0.422 ± 0.79
AESSPSVG	0.271 ± 0.57
YSRSGRTTNLAPNLHLRTMS	0.136 ± 1.2
LHVISGFYKCRTKRL	0.862 ± 0.32
ENIDVENQLVYLFKICFGSM	3.09 ± 0.12
MHGSGLHSDSLGPTV	0.565 ± 0.69
CSYPHIDIAPRSACPTWTQD	0.432 ± 0.72
AIGCVWVRNRVAIVGERVAK	2.08 ± 0.23
WTNSRHC	0.636 ± 0.38

Substance	amyloid nucleation score
MWTRHCN	0.483 ± 0.55
GKRGSTQDEAKR	inactive
HLSWLRINLPGSPHPPMSLP	3.57 ± 0.11
KCHRPWYSCLIC	1.98 ± 0.61
CHYFMNTLIV	inactive
SFRACFGPWLFIALIPKNTV	-1.1 ± 0.61
DSWIQHGGCEFVLIVRRHFI	0.714 ± 0.97
PCLLCVYCMFL	4.53 ± 0.055
IIAIPHLTLSWTNLSMGQG	3.76 ± 0.1
LLDKISNRPTQYGTTVPPVP	0.573 ± 0.45
SGNMNSLYWKSQKCNSYSFP	0.935 ± 1.1
LSVICMFTY	4.74 ± 0.052
KRDFVSRLDESPN	-0.873 ± 1.1
HALRSTLYMGSSVFLNAMDS	0.053 ± 1.1
NGCFIAFLTMFTYFTCTRVS	-0.76 ± 0.8
SITLS	-0.926 ± 1.8
MMGGSRWTCCYTFDFWSCWD	4.27 ± 0.1
VTRLLTLPWHCRRIYLVNLY	-0.09 ± 0.97
LGRGSGYRVLVMYLSVHC	0.164 ± 0.29
CLLVKLARLGDG	0.536 ± 0.63
NEWKSLSINEMRGSMTINNS	1.44 ± 0.12
FINNNVEDYFISL	0.712 ± 0.41

Substance	amyloid nucleation score
MSLDAFV	inactive
FWKTLQIFRTMVVN	0.055 ± 0.9
IRGYGAWGQWGSYRFRESES	1.6 ± 0.17
VGLNMLKNFNPDLSAKDITH	-0.176 ± 1.1
TLGLVDERHEDWIVLDYTLG	0.422 ± 0.53
SFAVHVGVANSSGSCLMLGG	0.277 ± 0.3
SLTFVPTLFTCMDLMHC	7.415 ± 0.067
AIYVRW	1.08 ± 0.22
FSASFNGLAAGRLASR	-0.105 ± 1.3
LAIVGQACRGVVEHARVSGH	0.136 ± 0.41
GNAVYMNYFNVLDWNWSL	4.966 ± 0.048
FFQTLDWV	-1.13 ± 2.4
VAKSRCYTQCGLGYLSRKLA	inactive
SGYSRGKEEQKHQFA	0.137 ± 0.6
ICNQCNNSGTQLYCIKLYMR	6.099 ± 0.045
TDIIFIVRYSVVLVSLCSKC	-0.343 ± 0.69
DVPGSRQVLVYFFNQIFDEM	5.9 ± 0.088
CFNMYLDVFDRVCRM	1.85 ± 0.13
FGLAGHFYNWNYIYTSSVWF	-0.021 ± 0.59
CCLVLSFLCNMEDSRNGG	6.363 ± 0.056
HLSVFQLDLTREVANCKSWM	3.17 ± 0.11
SQSRRVSGQQDGPQMYSNGP	-0.232 ± 0.36

Substance	amyloid nucleation score
IIINGVL	0.029 ± 0.62
DSRVKRY	inactive
LLTDRRDSSSRNDTLVRKGM	2.23 ± 0.091
GAPLTENKFVLRNFVMGSAL	0.159 ± 0.77
QVSANSKNKSVVLFQIKSNE	-0.17 ± 0.4
VERFDLHLSD	1.06 ± 0.6
NLRQVCNSAFVVGSVIFFWV	-0.318 ± 0.69
CRLSTS	-0.966 ± 0.42
VIGSCRTCMS	0.135 ± 0.3
TYYVRCLGLLGLNPTFRSPR	0.365 ± 0.36
FSPSLVMHSATSLRNVGLSA	-0.93 ± 2.4
EPLISCILCKLEGWIPYHI	-0.493 ± 0.56
IDWSVHL	inactive
MHWLRGVRS	0.082 ± 0.47
LQFNSLAVLGVPGEMNEQTG	-0.228 ± 0.58
KYIYNPSPLGSREDDTKACR	0.937 ± 0.49
MVAIRWYRMGLDDMNSGTVN	0.094 ± 0.27
SFPVQQIYF	0.971 ± 0.49
LGGVSSVLFYSHFLQVLEWC	-1.12 ± 0.78
QGCMATYSGVGDACWGVRVS	0.678 ± 0.56
SAGVTPLEMKSDRIREDAAG	0.629 ± 1
